Patent US20230270832A1 (TSCAN THERAPEUTICS, published 2023)

B1: MAGEA1 TCR 32-41 (TCR, V domains shown)
V domain 1: QLLEQSPQFLSIQEGENLTVYCNSSSVFSSLQWYRQEPGEGPVLLVTVVTGGEVKKLKRLTFQFGDARKDSSLHITAAQPGDTGLYLCAGDESISYGKLTFGQGTILTVHP
V domain 2: DAGVIQSPRHEVTEMGQEVTLRCKPISGHDYLFWYRQTMMRGLELLIYFNNNVPIDDSGMPEDRFSAKMPNASFSTLKIQPSEPRDSAVYFCASSFLGWNEKLFFGSGTQLSVLE
B2: MAGEA1 TCR 32-39 (TCR, V domains shown)
V domain 1: DQQVKQNSPSLSVQEGRISILNCDYTNSMFDYFLWYKKYPAEGPTFLISISSIKDKNEDGRFTVFLNKSAKHLSLHIVPSQPGDSAVYFCAASAQNNDMRFGAGTRLTVKP
V domain 2: NAGVMQNPRHLVRRRGQEARLRCSPMKGHSHVYWYRQLPEEGLKFMVYLQKENIIDESGMPKERFSAEFPKEGPSILRIQQVVRGDSAAYFCASSPSYEQYFGPGTRLTVTE

Experiments:
[1] = target: MAGEA1 peptide VRFFFPSL (SEQ ID NO: 1) presented by HLA-C*07:02 (human); experiment: cell-based or functional assay
… (10) = … (10) (Homo sapiens, UniProt C*07:02); experiment: cell-based or functional assay

Binder | EC50 [table, row MAGEA1, column Peptide EC50] [1] [nM] | EC50 (read off the curve) [left panel '4hr Killing (IFP)'] (… (10)) [ng/mL]
B1 | ~0.25 | 
B2 |  | ~8
